B1: SRP1848-A02 (antibody, V domains shown)
VH: EVQLVESGGGLVQPGGSLRLSCAASGFNISGFRIHWVRQAPGKGLEWVAGIYPESGATYYADSVKGRFTISADTSKNTAYLQMNSLRAEDTAVYYCARHLYVWDWVLDHVLDYWGQGTLVTVSS
VL: not shown
notes: VH/VL only; Fc-bearing IgG format with trastuzumab LC, HIS/FLAG-tagged, cell-free expressed; constant regions not tied; also called Antibody 2
B2: SRP1848-E03 (antibody, V domains shown)
VH: EVQLVESGGGLAQPGGSLRLSCAASGFNIGNYYIHWVRQAPGKGLEWVGGITPRDGFTDYADSVKGRFTISADTSKNTAYLQVNSLRAEDTAVYYCARGSWSWPAGHSYYLDYWGQGTLVTVSS
VL: not shown
notes: VH/VL only; Fc-bearing IgG format with trastuzumab LC, HIS/FLAG-tagged, cell-free expressed; constant regions not tied; also called Antibody 33
B3: SRP1848-D03 (antibody, V domains shown)
VH: EVQLVESGGGVVQPGGSLRLSCAASGFNIRYFSIHWVRQAPGKGLEWVGDIFPNDGSTDYADSVKGRFTISADTSKNTAYLQMNSLRAEETAVYYCARGHWSWPSGYWYYLDYWGQGTLVTVSS
VL: not shown
notes: VH/VL only; Fc-bearing IgG format with trastuzumab LC, HIS/FLAG-tagged, cell-free expressed; constant regions not tied; also called Antibody 25
B4: SRP1848-G04 (antibody, V domains shown)
VH: EVQLVESGGGLVQPGGSLRLSCAASGFNIHSTDIHWVRQAPGKGLEWVAYITPAGGATFYADSVKGRFTISADTSKNTAYLQMNSLRAEDTAVYYCARYPYWFAGYMDYWGQGTLVTVSS
VL: not shown
notes: VH/VL only; Fc-bearing IgG format with trastuzumab LC, HIS/FLAG-tagged, cell-free expressed; constant regions not tied; also called Antibody 49
B5: SRP1848-G06 (antibody, V domains shown)
VH: EVQLVESGGGLVQPGGSLRLSCAASGFNIRSTDIHWVRQAPGKGLEWVAYITPAGGATYYADNVKGRFTISADTSKNTAYLQMNSLRAEDTAVYYCARQPYWFAGYMDYWGQGTLVTVSS
VL: not shown
notes: VH/VL only; Fc-bearing IgG format with trastuzumab LC, HIS/FLAG-tagged, cell-free expressed; constant regions not tied; also called Antibody 50
B6: SRP1848-G07 (antibody, V domains shown)
VH: EVQLVESGGGLVQPGGSLRLSCAASGFNIHSTDIHWVRQAPGKGLEWVAYITPAGGATWYADSVKGRFTISADTSKNTAYLQMNSLRAEDTAVYYCARYPFWFAGYMDYWGQGTLVTVSS
VL: not shown
notes: VH/VL only; Fc-bearing IgG format with trastuzumab LC, HIS/FLAG-tagged, cell-free expressed; constant regions not tied; also called Antibody 51
B7: SRP1848-G09 (antibody, V domains shown)
VH: EVQLVESGGGLVQPGGSLRLSCAASGFNIRGTDIHWVRQAPGKGLEWVAYITPAGGATFYADSVKGRFTISADTSKNTAYLQMNSLRAEDTAVYYCARHEYWFSGYMDYWGQGTLVTVSS
VL: not shown
notes: VH/VL only; Fc-bearing IgG format with trastuzumab LC, HIS/FLAG-tagged, cell-free expressed; constant regions not tied; also called Antibody 52
B8: SRP1848-G10 (antibody, V domains shown)
VH: EVQLVESGGGLVQPGSSLRLSCAASGFNIRSTDIHWVRQAPGKGLEWVAYITPAGGATYYADSVKGRFTISADTSKNTAYLQMNSLRAEDTAVYYCARYPYWFAGYIDYWGQGTLVTVSS
VL: not shown
notes: VH/VL only; Fc-bearing IgG format with trastuzumab LC, HIS/FLAG-tagged, cell-free expressed; constant regions not tied; also called Antibody 53
B9: SRP1848-G11 (antibody, V domains shown)
VH: EVQLVESGGGLVQPGGSLRLSCAASGFNISSTDIHWVRQAPGKGLEWVAYITPAGGATWYADSVKGRFTISADTSKNTAYLQMNSLRAEDTAVYYCARYPYWFSGYMDYWGQGTLVTVSS
VL: not shown
notes: VH/VL only; Fc-bearing IgG format with trastuzumab LC, HIS/FLAG-tagged, cell-free expressed; constant regions not tied; also called Antibody 54
B10: SRP1848-A01 (antibody, V domains shown)
VH: EVQLVESGGGLVQPGGSLRLSCAASGFNITRYSIHWVRQAPGKGLEWVAGILPESGGTSYADSVKGRFTISADTSKNTAYLQMNSLRAEDTAVYYCARHIYPWDWFSNYVLDYWGQGTLVTVSS
VL: not shown
notes: VH/VL only; Fc-bearing IgG format with trastuzumab LC, HIS/FLAG-tagged, cell-free expressed; constant regions not tied; also called Antibody 1
B11: SRP1848-E06 (antibody, V domains shown)
VH: EVQLVESGGGLVQPSGSLRLSCAASGFNINRYYIHWVRQAPGKGLEWVGGITPNDGYTDYADSVEGRFTTSADTSKNTAYLQMNSLRAEDTAVYYCARGTWSWPSGHSYYLDYWGQGTLVTVSS
VL: not shown
notes: VH/VL only; Fc-bearing IgG format with trastuzumab LC, HIS/FLAG-tagged, cell-free expressed; constant regions not tied; also called Antibody 35

How the values were obtained:
[1] = target: T1, Murine folate receptor alpha (mouse, UniProt P35846 25-232); experiment: FACS, CHO-mFOLR1 cells
T1 construct: Stably expressed on CHO cells (CHO-mFOLR1); also called mouse FOLR1; CHO-mFOLR1

[2] = target: T2, Human folate receptor alpha (hFOLR1) (human, UniProt P15328 25-234); experiment: FACS, CHO-hFOLR1 cells
T2 construct: Stably expressed on CHO cells (CHO-hFOLR1) for flow cytometry; endogenous on FOLR1-positive KB and Igrov1 cells in the killing assay; also called human FOLR1; FolRα
Protocol: CHO cells were transfected to stably express human (CHO-hFOLR1), cynomolgus (CHO-cFOLR1), or mouse (CHO-mFOLR1) target molecule FOLR1 on the cell surface. Parental CHO cells were used as a negative control to determine background binding levels. Parental CHO and stably transfected CHO-hFOLR1, CHO-cFOLR1, and CHO-mFOLR1 cells were cultured in Ham's F-12: high glucose DMEM (50:50) (Corning, Cellgro-Mediatech) supplemented with 10% heat-inactivated fetal bovine serum (Corning, Cellgro-Mediatech), 1% Penicillin/Streptomycin (Corning, Cellgro-Mediatech) and 2 mmol/L-glutamax (Life Technology).
A mixture of fluoresecent-labeled parental CHO cells and unlabeled CHO-hFOLRlcells were prepared as follows. Parental CHO cells were washed twice in PBS and incubated in PBS containing with 1 nM CellTrace™ Oregon Green488® (Life Technologies) at 37° C. for 30 minutes. Labeled parental CHO cells were then washed 2× with Ham's F-12 media and 2× with FACS buffer (PBS with 1% bovine serum albumin). Unlabeled CHO-hFOLR1 cells were similarly washed and prepared. Labeled parental CHO and unlabeled CHO-hFOLR1 cells were combined at 1:1 ratio and seeded at 50 μL per well (200,000 cells per well) in 96 well polypropylene plates. Cells were mixed with 50 μL of test antibodies (i.e., anti-FOLR1 variants) serially diluted in FACS buffer and incubated on ice for 60 mins. Cells were washed with FACS buffer and incubated on ice for 60 mins with 100 μL FACS buffer containing 2.5 μg/mL R-Phycoerythrin-conjugated goat anti-Human IgG (Jackson ImmunoResearch Laboratories, West Grove, Pa.). Cells were washed twice with FACS buffer, fixed in 2% paraformaldehyde in PBS (Santa Cruz Biotechnology; Dallas, Tex.) for 10 mins on ice in the dark, and analyzed using the BD LSR II Flow Cytometer (BD Biosciences; San Jose, Calif.). Data were analyzed using FlowJo® software (FlowJo, LLC; Ashland, Oreg.) to determine mean fluorescence intensities. Binding constants were calculated using the statistical software, GraphPad Prism (GraphPad Software; La Jolla, Calif.) using the nonlinear regression equation, one site-specific binding with Hill slope. Secondary antibody alone was used as a control, in addition to measuring non-specific antibody binding to CHO parental cells.

[3] = target: T3, Cynomolgus folate receptor alpha (cynomolgus monkey, UniProt P15328 25-234 (human entry)); experiment: FACS, CHO-cFOLR1 cells
T3 construct: Stably expressed on CHO cells (CHO-cFOLR1); also called cynomolgus FOLR1; CHO-cFOLR1
T3 sequence (P15328 other isoform, or with tags, fused parts or gaps limits assumed): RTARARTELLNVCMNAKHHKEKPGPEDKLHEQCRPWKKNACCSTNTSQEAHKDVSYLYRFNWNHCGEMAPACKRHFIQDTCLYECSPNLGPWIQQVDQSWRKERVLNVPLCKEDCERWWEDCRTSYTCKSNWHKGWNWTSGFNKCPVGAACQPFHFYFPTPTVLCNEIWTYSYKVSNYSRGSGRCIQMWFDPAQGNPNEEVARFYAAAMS

T1 sequence (P35846 25-232 limits assumed): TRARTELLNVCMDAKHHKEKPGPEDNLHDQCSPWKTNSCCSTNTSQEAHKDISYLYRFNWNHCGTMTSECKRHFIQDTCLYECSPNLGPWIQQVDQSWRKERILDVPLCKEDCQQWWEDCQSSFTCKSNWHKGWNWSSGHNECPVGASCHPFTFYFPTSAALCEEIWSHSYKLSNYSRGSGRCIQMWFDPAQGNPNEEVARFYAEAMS
T2 sequence (P15328 25-234 limits assumed): as the sequence (P15328 other isoform, or with tags, fused parts or gaps limits assumed) above, with T2I, R4W, K37R, R117Q, P146A, Y171H counted along it

Binder | Bmax [1] [MFI] | Bmax [2] [MFI] | Bmax [3] [MFI]
B1 | 18600 | 24700 | 18500
B2 | 5940 | 26700 | 17400
B3 | 3170 | 26000 | 14100
B4 | 2000 | 25200 | 12500
B5 | 1860 | 25800 | 12800
B6 | 1980 | 24900 | 13700
B7 | 2180 | 25100 | 17700
B8 | 2890 | 25300 | 14200
B9 | 2740 | 27200 | 11800
B10 | 16500 | 25900 | 22600
B11 | 2350 | 25600 | 15800
